Data from IntAct's records for PubMed 18334649.

B1: Receptor tyrosine-protein kinase erbB-4 (Homo sapiens), Q15303 (parent)
chain: MKPATGLWVWVSLLVAAGTVQPSDSQSVCAGTENKLSSLSDLEQQYRALRKYYENCEVVMGNLEITSIEHNRDLSFLRSVREVTGYVLVALNQFRYLPLENLRIIRGTKLYEDRYALAIFLNYRKDGNFGLQELGLKNLTEILNGGVYVDQNKFLCYADTIHWQDIVRNPWPSNLTLVSTNGSSGCGRCHKSCTGRCWGPTENHCQTLTRTVCAEQCDGRCYGPYVSDCCHRECAGGCSGPKDTDCFACMNFNDSGACVTQCPQTFVYNPTTFQLEHNFNAKYTYGAFCVKKCPHNFVVDSSSCVRACPSSKMEVEENGIKMCKPCTDICPKACDGIGTGSLMSAQTVDSSNIDKFINCTKINGNLIFLVTGIHGDPYNAIEAIDPEKLNVFRTVREITGFLNIQSWPPNMTDFSVFSNLVTIGGRVLYSGLSLLILKQQGITSLQFQSLKEISAGNIYITDNSNLCYYHTINWTTLFSTINQRIVIRDNRKAENCTAEGMVCNHLCSSDGCWGPGPDQCLSCRRFSRGRICIESCNLYDGEFREFENGSICVECDPQCEKMEDGLLTCHGPGPDNCTKCSHFKDGPNCVEKCPDGLQGANSFIFKYADPDRECHPCHPNCTQGCNGPTSHDCIYYPWTGHSTLPQHARTPLIAAGVIGGLFILVIVGLTFAVYVRRKSIKKKRALRRFLETELVEPLTPSGTAPNQAQLRILKETELKRVKVLGSGAFGTVYKGIWVPEGETVKIPVAIKILNETTGPKANVEFMDEALIMASMDHPHLVRLLGVCLSPTIQLVTQLMPHGCLLEYVHEHKDNIGSQLLLNWCVQIAKGMMYLEERRLVHRDLAARNVLVKSPNHVKITDFGLARLLEGDEKEYNADGGKMPIKWMALECIHYRKFTHQSDVWSYGVTIWELMTFGGKPYDGIPTREIPDLLEKGERLPQPPICTIDVYMVMVKCWMIDADSRPKFKELAAEFSRMARDPQRYLVIQGDDRMKLPSPNDSKFFQNLLDEEDLEDMMDAEEYLVPQAFNIPPPIYTSRARIDSNRSEIGHSPPPAYTPMSGNQFVYRDGGFAAEQGVSVPYRAPTSTIPEAPVAQGATAEIFDDSCCNGTLRKPVAPHVQEDSSTQRYSADPTVFAPERSPRGELDEEGYMTPMRDKPKQEYLNPVEENPFVSRRKNGDLQALDNPEYHNASNGPPKAEDEYVNEPLYLNTFANTLGKAEYLKNNILSMPEKAKKAFDNPDYWNHSLPPRSTLQHPDYLQEYSTKYFYKQNGRIRPIVAENPEYLSEFSLKPGTVLPPPPYRHRNTVV

Variants of: B1
Settings: with ITCH

Variant | effect of a mutation on the interaction
Y1056F | disrupting interaction
P1054A | disrupting interaction
